Measurements as given in article PMC2756588.

T1: Cdc25, P04821
T1 sequence (P04821 50-136, looked up): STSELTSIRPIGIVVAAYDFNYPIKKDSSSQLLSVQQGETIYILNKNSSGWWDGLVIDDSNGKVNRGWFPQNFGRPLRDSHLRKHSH

T2: Bud14, P27637
T2 sequence (P27637 247-328, looked up): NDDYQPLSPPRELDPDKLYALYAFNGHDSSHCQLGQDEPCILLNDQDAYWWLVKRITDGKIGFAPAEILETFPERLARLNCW

T3: Lsb3, P43603
T3 sequence (P43603 385-451, looked up): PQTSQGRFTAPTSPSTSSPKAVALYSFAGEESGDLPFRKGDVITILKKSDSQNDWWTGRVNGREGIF

T4: Cyk3, Q07533
T4 sequence (Q07533 1-83, looked up): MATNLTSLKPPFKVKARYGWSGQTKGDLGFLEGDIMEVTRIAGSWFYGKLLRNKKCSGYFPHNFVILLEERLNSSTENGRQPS

T5: Bzz1-1, P38822
T5 sequence (P38822 478-572, looked up): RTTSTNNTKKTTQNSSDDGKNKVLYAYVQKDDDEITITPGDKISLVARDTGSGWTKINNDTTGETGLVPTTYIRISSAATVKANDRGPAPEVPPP

T6: Pin3, Q06449
T6 sequence (Q06449 53-122, looked up): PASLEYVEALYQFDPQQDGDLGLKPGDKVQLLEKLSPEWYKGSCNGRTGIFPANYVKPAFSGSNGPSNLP

T7: Hse1, P38753
T7 sequence (P38753 208-285, looked up): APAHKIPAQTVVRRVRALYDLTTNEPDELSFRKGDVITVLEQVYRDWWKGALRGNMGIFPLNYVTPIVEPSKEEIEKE

T8: Fus1, P11710
T8 sequence (P11710 432-512, looked up): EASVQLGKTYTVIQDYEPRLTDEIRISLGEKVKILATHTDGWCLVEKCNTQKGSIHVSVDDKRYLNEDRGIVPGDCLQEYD

T9: Abp1, P15891
T9 sequence (P15891 535-592, looked up): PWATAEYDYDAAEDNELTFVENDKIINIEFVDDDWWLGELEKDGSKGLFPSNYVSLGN

T10: Bbc1, P47068
T10 sequence (P47068 1-78, looked up): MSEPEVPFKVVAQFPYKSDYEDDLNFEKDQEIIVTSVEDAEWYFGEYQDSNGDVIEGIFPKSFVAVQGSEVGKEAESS

T11: Lsb1, P53281
T11 sequence (P53281 45-122, looked up): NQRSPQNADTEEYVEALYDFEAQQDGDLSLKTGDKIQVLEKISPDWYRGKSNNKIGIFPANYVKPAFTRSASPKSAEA

T12: Sla1-3, P32790
T12 sequence (P32790 344-424, looked up): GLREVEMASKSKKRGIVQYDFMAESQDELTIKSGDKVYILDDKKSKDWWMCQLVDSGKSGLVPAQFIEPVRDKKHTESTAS

T13: Bzz1-2, P38822
T13 sequence (P38822 568-633, looked up): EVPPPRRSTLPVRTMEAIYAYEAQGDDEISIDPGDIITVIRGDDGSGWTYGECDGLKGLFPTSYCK

T14: Nbp2, Q12163
T14 sequence (Q12163 103-180, looked up): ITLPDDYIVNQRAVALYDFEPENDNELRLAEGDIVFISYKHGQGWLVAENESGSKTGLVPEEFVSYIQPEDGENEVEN

T15: Boi1, P38041
T15 sequence (P38041 1-86, looked up): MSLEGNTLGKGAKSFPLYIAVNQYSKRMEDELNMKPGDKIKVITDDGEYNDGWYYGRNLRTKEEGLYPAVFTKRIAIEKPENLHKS

T16: Lsb4, P32793
T16 sequence (P32793 402-468, looked up): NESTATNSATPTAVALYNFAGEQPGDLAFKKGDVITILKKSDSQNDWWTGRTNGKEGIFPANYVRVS

T17: Pex13, P80667
T17 sequence (P80667 295-386, looked up): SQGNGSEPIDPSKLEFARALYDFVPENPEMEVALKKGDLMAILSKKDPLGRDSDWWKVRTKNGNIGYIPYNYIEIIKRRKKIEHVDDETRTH

T18: Hof1, Q05080
T18 sequence (Q05080 590-669, looked up): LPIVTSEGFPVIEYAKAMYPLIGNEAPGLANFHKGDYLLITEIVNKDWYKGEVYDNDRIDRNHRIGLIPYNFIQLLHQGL

T19: Boi2, P39969
T19 sequence (P39969 32-116, looked up): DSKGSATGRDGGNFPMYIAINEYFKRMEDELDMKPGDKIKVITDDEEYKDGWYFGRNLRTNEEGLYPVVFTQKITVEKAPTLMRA

T20: Sla1-2, P32790
T20 sequence (P32790 60-140, looked up): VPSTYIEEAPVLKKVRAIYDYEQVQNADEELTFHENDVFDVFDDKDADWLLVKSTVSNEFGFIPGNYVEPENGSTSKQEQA

T21: Myo5, Q04439
T21 sequence (Q04439 1072-1160, looked up): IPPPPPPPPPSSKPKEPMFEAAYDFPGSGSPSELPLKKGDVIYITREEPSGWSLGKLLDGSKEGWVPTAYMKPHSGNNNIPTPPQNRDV


biological target: Sho1, P40073; assay: SPOT array; details: median of control spots 1148
Sequence (P40073 287-367): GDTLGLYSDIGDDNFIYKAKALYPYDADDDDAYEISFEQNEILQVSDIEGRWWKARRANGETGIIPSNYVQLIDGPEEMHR

SPOT intensity | Binder
0 | AVPPPPPPPPLPESL
0 | LPPPPPPPPPPPLPQ
47 | KFIPSRPAPKPPSSA

biological target: T1, Cdc25, P04821; assay: SPOT array; details: median of control spots 969

SPOT intensity | Binder
0 | AVPPPPPPPPLPESL
1 | LPPPPPPPPPPPLPQ
0 | KFIPSRPAPKPPSSA

biological target: T2, Bud14, P27637; assay: SPOT array; details: median of control spots 956

SPOT intensity | Binder
0 | AVPPPPPPPPLPESL
0 | LPPPPPPPPPPPLPQ
0 | KFIPSRPAPKPPSSA

biological target: T3, Lsb3, P43603; assay: SPOT array; details: median of control spots 406

SPOT intensity | Binder
0 | AVPPPPPPPPLPESL
0 | LPPPPPPPPPPPLPQ
41 | KFIPSRPAPKPPSSA

biological target: T4, Cyk3, Q07533; assay: SPOT array; details: median of control spots 1451

SPOT intensity | Binder
2 | AVPPPPPPPPLPESL
1 | LPPPPPPPPPPPLPQ
0 | KFIPSRPAPKPPSSA

biological target: Myo3, P36006; assay: SPOT array; details: median of control spots 468

SPOT intensity | Binder
490 | AVPPPPPPPPLPESL
230 | LPPPPPPPPPPPLPQ
527 | KFIPSRPAPKPPSSA

biological target: T5, Bzz1-1, P38822; assay: SPOT array; details: median of control spots 4446

SPOT intensity | Binder
0 | AVPPPPPPPPLPESL
3 | LPPPPPPPPPPPLPQ
0 | KFIPSRPAPKPPSSA

biological target: T6, Pin3, Q06449; assay: SPOT array; details: median of control spots 2171

SPOT intensity | Binder
0 | AVPPPPPPPPLPESL
0 | LPPPPPPPPPPPLPQ
8 | KFIPSRPAPKPPSSA

biological target: Bem1-1, P29366; assay: SPOT array; details: median of control spots 4282
Sequence (P29366 55-141): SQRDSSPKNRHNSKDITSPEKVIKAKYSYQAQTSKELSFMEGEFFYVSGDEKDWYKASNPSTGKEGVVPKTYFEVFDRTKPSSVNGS

SPOT intensity | Binder
0 | AVPPPPPPPPLPESL
0 | LPPPPPPPPPPPLPQ
0 | KFIPSRPAPKPPSSA

biological target: T7, Hse1, P38753; assay: SPOT array; details: median of control spots 1727

SPOT intensity | Binder
0 | AVPPPPPPPPLPESL
0 | LPPPPPPPPPPPLPQ
2 | KFIPSRPAPKPPSSA

biological target: T8, Fus1, P11710; assay: SPOT array; details: median of control spots 1200

SPOT intensity | Binder
0 | AVPPPPPPPPLPESL
0 | LPPPPPPPPPPPLPQ
0 | KFIPSRPAPKPPSSA

biological target: T9, Abp1, P15891; assay: SPOT array; details: median of control spots 935

SPOT intensity | Binder
0 | AVPPPPPPPPLPESL
0 | LPPPPPPPPPPPLPQ
193 | KFIPSRPAPKPPSSA

biological target: T10, Bbc1, P47068; assay: SPOT array; details: median of control spots 796

SPOT intensity | Binder
0 | AVPPPPPPPPLPESL
0 | LPPPPPPPPPPPLPQ
316 | KFIPSRPAPKPPSSA

biological target: T11, Lsb1, P53281; assay: SPOT array; details: median of control spots 388

SPOT intensity | Binder
0 | AVPPPPPPPPLPESL
0 | LPPPPPPPPPPPLPQ
692 | KFIPSRPAPKPPSSA

biological target: T12, Sla1-3, P32790; assay: SPOT array; details: median of control spots 5475

SPOT intensity | Binder
3 | AVPPPPPPPPLPESL
4 | LPPPPPPPPPPPLPQ
199 | KFIPSRPAPKPPSSA

biological target: T13, Bzz1-2, P38822; assay: SPOT array; details: median of control spots 4538

SPOT intensity | Binder
1 | AVPPPPPPPPLPESL
0 | LPPPPPPPPPPPLPQ
10 | KFIPSRPAPKPPSSA

biological target: GST; assay: SPOT array; details: median of control spots 978

SPOT intensity | Binder
1 | AVPPPPPPPPLPESL
0 | LPPPPPPPPPPPLPQ
0 | KFIPSRPAPKPPSSA

biological target: T14, Nbp2, Q12163; assay: SPOT array; details: median of control spots 357

SPOT intensity | Binder
1 | AVPPPPPPPPLPESL
0 | LPPPPPPPPPPPLPQ
2510 | KFIPSRPAPKPPSSA

biological target: T15, Boi1, P38041; assay: SPOT array; details: median of control spots 1162

SPOT intensity | Binder
0 | AVPPPPPPPPLPESL
1 | LPPPPPPPPPPPLPQ
0 | KFIPSRPAPKPPSSA

biological target: T16, Lsb4, P32793; assay: SPOT array; details: median of control spots 397

SPOT intensity | Binder
0 | AVPPPPPPPPLPESL
0 | LPPPPPPPPPPPLPQ
78 | KFIPSRPAPKPPSSA

biological target: T17, Pex13, P80667; assay: SPOT array; details: median of control spots 1341

SPOT intensity | Binder
12 | AVPPPPPPPPLPESL
3 | LPPPPPPPPPPPLPQ
221 | KFIPSRPAPKPPSSA

biological target: T18, Hof1, Q05080; assay: SPOT array; details: median of control spots 4086

SPOT intensity | Binder
1 | AVPPPPPPPPLPESL
1 | LPPPPPPPPPPPLPQ
0 | KFIPSRPAPKPPSSA

biological target: Rvs167, P39743; assay: SPOT array; details: median of control spots 2707
Sequence (P39743 419-482): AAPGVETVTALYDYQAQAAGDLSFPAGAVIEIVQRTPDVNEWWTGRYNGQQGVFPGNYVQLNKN

SPOT intensity | Binder
0 | AVPPPPPPPPLPESL
0 | LPPPPPPPPPPPLPQ
7 | KFIPSRPAPKPPSSA

biological target: Bem1-2, P29366; assay: SPOT array; details: median of control spots 4347
Sequence (P29366 139-227): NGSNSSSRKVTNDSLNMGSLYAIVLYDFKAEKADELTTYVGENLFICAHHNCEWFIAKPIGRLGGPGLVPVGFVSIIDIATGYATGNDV

SPOT intensity | Binder
2 | AVPPPPPPPPLPESL
6 | LPPPPPPPPPPPLPQ
7700 | KFIPSRPAPKPPSSA

biological target: T19, Boi2, P39969; assay: SPOT array; details: median of control spots 1161

SPOT intensity | Binder
1 | AVPPPPPPPPLPESL
0 | LPPPPPPPPPPPLPQ
0 | KFIPSRPAPKPPSSA

biological target: T20, Sla1-2, P32790; assay: SPOT array; details: median of control spots 712

SPOT intensity | Binder
0 | AVPPPPPPPPLPESL
0 | LPPPPPPPPPPPLPQ
0 | KFIPSRPAPKPPSSA

biological target: T21, Myo5, Q04439; assay: SPOT array; details: median of control spots 471

SPOT intensity | Binder
132 | AVPPPPPPPPLPESL
325 | LPPPPPPPPPPPLPQ
339 | KFIPSRPAPKPPSSA
